To fix the notation:
B1: F1.42.8 human-murine chimeric antibody (antibody, human IgG1, kappa, V domains shown)
VH: HVQLQQPGAELVKPGASVKLSCKASGYTFTSYWMHWVRQRPGQGLEWIEMIHPNSGSTNYNEKFKSKATLTVDKSSSTAYMQLSSLTSEDSAVYYCARGNYNSSLYAMDYWGQGTSVTVSS
VL: DIQMTQTTSSLSASLGDRVTISCSASQGISNYLNWYQQKPDGTVKLLIYYASNLHSGVPSRFSGSGSGTAYSLTISNLEPEDIATYYCQQYSILPYTFGGGTKLEIKR
B2: F1.78.24 human-murine chimeric antibody (antibody, human IgG1, kappa, V domains shown)
VH: QVQLQQSGAELVKPGASVKMSCKASGYTFTTYPIEWMKQNHGKSLEWIGNFHPYNDDTNYNVKFKGKATLTVEKSSSTVYLELSRLTSDDSALYYCARRREYYGSFDVWGTGTTVTVSS
VL: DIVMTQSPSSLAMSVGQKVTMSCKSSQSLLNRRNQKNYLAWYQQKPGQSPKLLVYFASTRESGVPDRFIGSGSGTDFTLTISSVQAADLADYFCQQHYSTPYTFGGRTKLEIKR
B3: F1.83.6 human-murine chimeric antibody (antibody, human IgG1, kappa, V domains shown)
VH: QVQLQQSGPELVKPGASVKISCKASGYAFSSSWMNWVKQRPGKGLEWIGRIYPGDGDTNYNGRFKGKATLTVDKSSSTAYMQLSSLTSEDSAVYFCARGGVFTMALDHWGQGTTLTVSS
VL: DIQMTQSPSSLSASLGGKVTITCKASQDINKYIAWYQHKPGKGPRLLIHYTSTLQPGIPSRFSGSGSGRDYSFSISNLEPEDIATYYCLQYDNLFTFGGGTKLEIKR
B4: F1.21.8 human-murine chimeric antibody (antibody, human IgG1, kappa, V domains shown)
VH: EVQLQQSGPELVKPGASVKISCKTSGFLFTGHYMHWVKSSHGNILDWIGYIYPYNAISFYNQKFKGKATLTVDKSSNTAYMELRSLTSEDSAVYYCARGDYGNYVTAYWGQGTLVTVSA
VL: DVLMTQTPLSLPVSLGDQASISCRSSQSIVHSSGNTYLEWYLQKPGQSPKLLIYKVSNRFSGVPDRFSGSGSGTDFTLKISRVEAEDLGVYYCFQGSHLPWTFGGGTKLDIKR
B5: F1.92.17 human-murine chimeric antibody (antibody, human IgG1, kappa, V domains shown)
VH: EVQLQQSGPELVKPGASVKMSCKASGYTFTDYNMHWVRQSHGKSLEWIGYINPNNGDTIYNQNFKGKATLTVNKSSSTAYMELRSLTSEDSAVYYCSRTITYYYSMDYWGPGTSVTVSS
VL: QIVLTQSPALMSASPGEKVTMTCSASSSVSYMYWYQQKPRSSPKPWIYLTSNLASGVPARFSGSGSGTSYSLTISSMEAEDAATYYCQQWSSNPLTFGAGTKLELKR
B6: F1.110.24 human-murine chimeric antibody (antibody, human IgG1, kappa, V domains shown)
VH: EVKLVESGGGLVQPGGSLKLSCAASGFTFSDFYMYWVRQTPEKRLEWVAFISNGGGSTYYPDTVKGRFTISRDNVKNTLYLQMSRLKSEDTAMYYCARPDTSWFAYWGQGSLVTVSA
VL: DIQMTQTTSSLSASLGDRVTISCRASQDIDNYLNWYQQKPDGTVKVLISYTSRLHSGVPSRFSGSGSGTDYSLTISNLEQEDIATYFCQQGNTLPWTFGGGTKLEIKR
B7: F1.41.17 human-murine chimeric antibody (antibody, human IgG1, kappa, V domains shown)
VH: EVQLVESGGDSVKPGGSLKLSCAASGFTFSSYGMSWVRQTPDKRLEWVATINSGGSYTYYQDSVKGRFTISRDNAKNTLYLQMSSLKSEDTAIYYCVRHHYGSSYDYFDYWGQGTTLTVSS
VL: DIVMTQAAPSVPVMPGESVSISCRSSKSLLHSNGNTHLYWFLQRPGQSPQLLIYRMSNLASGVPDRFSGSGSGTAFTLRISRVEAEDVGVYYCMQHLEYPLTFGAGTKLELKR
B8: F1.2.14 human-murine chimeric antibody (antibody, human IgG1, kappa, V domains shown)
VH: RVQLQQSGAELVKPGASVRMSCKASGYTFTAYSIEWMKQNLGKSLEWIGNFRPYNDDTKYNENFKGRATLTVEKSSATVYLELSRLTSDDSAVYYCARSGPTDYFDYWGQGTTLIVSS
VL: DIQMTQSPASLSASVGETVTITCRASDNIYSYLAWYQQKQGQSPQLLVYNAKTLAEGVPSRFSGSGSVTQFSLKIISLQPEDFGTYYCQHHFGTPRTFGGGTKLEIKR
B9: F2.152.3 (antibody, human IgG1, kappa, V domains shown)
VH: EVQLQQSGPELVKPGASVKMSCKASGYTFTDYYMTWVKQSHGKSLEWIGRVNPRNGDTTYNQKFEGRATLTLDKSLSTAFMQLNSLTSEDSAVYYCINSKGHFDYWGQGTTLTVSS
VL: DVLMTQTPLSLPVSLGDQASISCRSSQSIVHSNGNTYLEWFLQKPGQSPKSLIYKVSNRFSGVPDRFSGSGSGTDFTLKISRVEAEDLGVYYCFQGSHVPPTFGAGTKLELKR
notes: Human-murine chimeric antibody
B10: hAb007LH3L1a (antibody, human IgG1, V domains shown)
VH: EVQLVQSGAEVKKPGSSVKVSCKASGYTFTDYEMHWVRQAPGQGLEWMGTIDPETGNTAYNQKFKGRVTLTADKSTSTAYMELSSLRSEDTAVYYCTRPYSLTYWGQGTLVTVSS
VL: DIVMTQTPLSLPVTPGEPASISCRSSQSFVHSDGDTYLQWYLQKPGQSPQLLIYKVSNRFSGVPDRFSGSGSGTDFTLKISRVEAEDVGVYYCFQGSHVPYTFGQGTKLEIK
notes: Humanized F3.81.19; VH H3 + VL L1a; expressed as human IgG1

For the first assay, the target named is T1, murine GPC3-his protein (Sino Biological, Cat. No. 50989-M08B) (murine, UniProt Q8CFZ4 25-558).
T1 construct: Bought protein; also called murine GPC3 protein
T1 sequence (Q8CFZ4 25-558 limits assumed): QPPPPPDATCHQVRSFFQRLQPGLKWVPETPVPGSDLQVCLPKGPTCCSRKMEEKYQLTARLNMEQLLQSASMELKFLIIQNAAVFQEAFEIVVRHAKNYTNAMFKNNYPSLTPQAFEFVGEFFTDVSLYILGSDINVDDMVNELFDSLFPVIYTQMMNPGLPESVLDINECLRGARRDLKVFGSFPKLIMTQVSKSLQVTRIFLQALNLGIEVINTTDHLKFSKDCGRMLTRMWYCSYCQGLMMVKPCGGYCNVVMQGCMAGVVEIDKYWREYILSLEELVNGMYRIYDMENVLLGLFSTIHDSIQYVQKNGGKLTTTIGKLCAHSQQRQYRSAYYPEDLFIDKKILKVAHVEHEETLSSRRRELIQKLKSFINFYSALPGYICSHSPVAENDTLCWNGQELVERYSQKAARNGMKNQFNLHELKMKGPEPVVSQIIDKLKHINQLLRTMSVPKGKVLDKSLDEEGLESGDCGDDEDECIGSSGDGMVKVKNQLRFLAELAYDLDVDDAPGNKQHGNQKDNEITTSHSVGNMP
The experiment in a line: ELISA, coated murine GPC3-His.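 Further: antigen coated on plates at 1 µg/mL, test antibody bound for 2 h at 37 °C, detected with HRP-conjugated secondary antibody and TMB substrate after acid stop.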 On the technique in general: An ELISA detects its analyte on a solid surface through an enzyme-linked reagent.
On to B1, for which the “OD450 at 0.0001 nM antibody” value was found to be 0.05 OD450 nm, the “OD450 at 0.001 nM antibody” value was found to be 0.09 OD450 nm, the “OD450 at 0.01 nM antibody” value turned out to be 0.37 OD450 nm and the “OD450 at 0.1 nM antibody” value was determined as 1.7 OD450 nm. Further, the “OD450 at 1 nM antibody” value worked out at 2.51 OD450 nm, the “OD450 at 10 nM antibody” value was determined as 2.6 OD450 nm and the “OD450 at 100 nM antibody” value was 2.75 OD450 nm.

Take B2: the “OD450 at 0.0001 nM antibody” value was determined as 0.05 OD450 nm, the “OD450 at 0.001 nM antibody” value is 0.06 OD450 nm, the “OD450 at 0.01 nM antibody” value came to 0.1 OD450 nm and the “OD450 at 0.1 nM antibody” value stood at 0.24 OD450 nm. Moreover, the “OD450 at 1 nM antibody” value is 0.17 OD450 nm, the “OD450 at 10 nM antibody” value was 0.34 OD450 nm and the “OD450 at 100 nM antibody” value turned out to be 0.25 OD450 nm.

B3: the “OD450 at 0.0001 nM antibody” value stood at 0.05 OD450 nm, the “OD450 at 0.001 nM antibody” value is 0.05 OD450 nm, the “OD450 at 0.01 nM antibody” value came out at 0.06 OD450 nm and the “OD450 at 0.1 nM antibody” value came out at 0.12 OD450 nm. In addition, the “OD450 at 1 nM antibody” value amounted to 0.14 OD450 nm, the “OD450 at 10 nM antibody” value is 0.24 OD450 nm and the “OD450 at 100 nM antibody” value worked out at 0.16 OD450 nm.

Take B4: the “OD450 at 0.0001 nM antibody” value is 0.05 OD450 nm, the “OD450 at 0.001 nM antibody” value worked out at 0.07 OD450 nm, the “OD450 at 0.01 nM antibody” value is 0.17 OD450 nm and the “OD450 at 0.1 nM antibody” value was determined as 0.76 OD450 nm. Further, the “OD450 at 1 nM antibody” value was 1.12 OD450 nm, the “OD450 at 10 nM antibody” value stood at 1.41 OD450 nm and the “OD450 at 100 nM antibody” value amounted to 1.84 OD450 nm.

Turning to B5, the “OD450 at 0.0001 nM antibody” value is 0.05 OD450 nm, the “OD450 at 0.001 nM antibody” value came out at 0.05 OD450 nm, the “OD450 at 0.01 nM antibody” value stood at 0.05 OD450 nm and the “OD450 at 0.1 nM antibody” value came out at 0.06 OD450 nm. For the same molecule, the “OD450 at 1 nM antibody” value amounted to 0.11 OD450 nm, the “OD450 at 10 nM antibody” value stood at 0.22 OD450 nm and the “OD450 at 100 nM antibody” value is 0.13 OD450 nm.

For the molecule B6, the “OD450 at 0.0001 nM antibody” value is 0.05 OD450 nm, the “OD450 at 0.001 nM antibody” value worked out at 0.05 OD450 nm, the “OD450 at 0.01 nM antibody” value turned out to be 0.05 OD450 nm and the “OD450 at 0.1 nM antibody” value was 0.12 OD450 nm. In addition, the “OD450 at 1 nM antibody” value amounted to 0.32 OD450 nm, the “OD450 at 10 nM antibody” value is 0.53 OD450 nm and the “OD450 at 100 nM antibody” value came out at 0.3 OD450 nm.

B7: the “OD450 at 0.0001 nM antibody” value was 0.06 OD450 nm, the “OD450 at 0.001 nM antibody” value is 0.05 OD450 nm, the “OD450 at 0.01 nM antibody” value came out at 0.05 OD450 nm and the “OD450 at 0.1 nM antibody” value came to 0.06 OD450 nm. The “OD450 at 1 nM antibody” value turned out to be 0.07 OD450 nm, the “OD450 at 10 nM antibody” value came to 0.08 OD450 nm and the “OD450 at 100 nM antibody” value was 0.11 OD450 nm.

Turning to B8, the “OD450 at 0.0001 nM antibody” value is 0.05 OD450 nm, the “OD450 at 0.001 nM antibody” value worked out at 0.05 OD450 nm, the “OD450 at 0.01 nM antibody” value was 0.06 OD450 nm and the “OD450 at 0.1 nM antibody” value is 0.14 OD450 nm. Further, the “OD450 at 1 nM antibody” value was 0.46 OD450 nm, the “OD450 at 10 nM antibody” value came to 1.2 OD450 nm and the “OD450 at 100 nM antibody” value was 1.24 OD450 nm.

In the next assay the target is T2, monkey GPC3-His protein (monkey).
T2 construct: Bought recombinant protein; also called monkey GPC3 protein
The experiment in a line: ELISA, monkey GPC3-His coated.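 Further: Plate-coated antigen at 1 µg/mL, antibody binding 2 h at 37 °C, detected with HRP-labeled secondary antibody and TMB, absorbance at 450 nm.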
Regarding B9, the “OD450 at 0.0001 nM” value is 0.24 OD450, the “OD450 at 0.001 nM” value stood at 0.31 OD450, the “OD450 at 0.01 nM” value is 0.69 OD450 and the “OD450 at 0.1 nM” value stood at 1.92 OD450. In addition, the “OD450 at 1 nM” value was determined as 2.52 OD450, the “OD450 at 10 nM” value stood at 2.31 OD450 and the “OD450 at 100 nM” value was found to be 2.41 OD450.

In a further assay the target is biotinylated labeled human GPC3 protein (produced in-house) (human, UniProt P51654 25-559, limits assumed, biotinylated (Dojindo, Cat. No. LK03); sites not stated). The experiment in a line: ELISA, biotinylated human GPC3 protein.
On to B10, for which the “OD450 at 0.0008 nM” value is 0.083 OD450, the “OD450 at 0.004 nM” value amounted to 0.088 OD450, the “OD450 at 0.02 nM” value is 0.14 OD450 and the “OD450 at 0.11 nM” value came out at 0.353 OD450. The “OD450 at 0.53 nM” value stood at 1.04 OD450, the “OD450 at 2.67 nM” value was found to be 1.78 OD450, the “OD450 at 13.33 nM” value worked out at 2.04 OD450 and the “OD450 at 66.66 nM” value was 2.03 OD450.
